Results on 3 variants are retold here after IntAct's records for PubMed 32493513.

First the molecules themselves.
B1: Disrupted in schizophrenia 1 homolog (Mus musculus), Q811T9 (parent)
chain: MQGGGPRGAPIHSPSHGADSGHGLPPAVAPQRRRLTRRPGYMRSTAGSGIGFLSPAVGMPHPSSAGLTGQQSQHSQSKAGQCGLDPGSHCQASLVGKPFLKSSLVPAVASEGHLHPAQRSMRKRPVHFAVHSKNDSRQSERLTGSFKPGDSGFWQELLSSDSFKSLAPSLDAPWNKGSRGLKTVKPLASPALNGPADIASLPGFQDTFTSSFSFIQLSLGAAGERGEAEGCLPSREAEPLHQRPQEMAAEASSSDRPHGDPRHLWTFSLHAAPGLADLAQVTRSSSRQSECGTVSSSSSDTGFSSQDASSAGGRGDQGGGWADAHGWHTLLREWEPMLQDYLLSNRRQLEVTSLILKLQKCQEKVVEDGDYDTAETLRQRLEELEQEKGRLSWALPSQQPALRSFLGYLAAQIQVALHGATQRAGSDDPEAPLEGQLRTTAQDSLPASITRRDWLIREKQRLQKEIEALQARMSALEAKEKRLSQELEEQEVLLRWPGCDLMALVAQMSPGQLQEVSKALGETLTSANQAPFQVEPPETLRSLRERTKSLNLAVRELTAQVCSGEKLCSSLRRRLSDLDTRLPALLEAKMLALSGSCFSTAKELTEEIWALSSEREGLEMFLGRLLALSSRNSRRLGIVKEDHLRCRQDLALQDAAHKTRMKANTVKCMEVLEGQLSSCRCPLLGRVWKADLETCQLLMQSLQLQEAGSSPHAEDEEQVHSTGEAAQTAALAVPRTPHPEEEKSPLQVLQEWDTHSALSPHCAAGPWKEDSHIVSAEVGEKCEAIGVKLLHLEDQLLGAMYSHDEALFQSLQGELQTVKETLQAMILQLQPTKEAGEASASYPTAGAQETEA
B2: Disrupted in schizophrenia 1 protein (Homo sapiens), Q9NRI5 (parent)
chain: MPGGGPQGAPAAAGGGGVSHRAGSRDCLPPAACFRRRRLARRPGYMRSSTGPGIGFLSPAVGTLFRFPGGVSGEESHHSESRARQCGLDSRGLLVRSPVSKSAAAPTVTSVRGTSAHFGIQLRGGTRLPDRLSWPCGPGSAGWQQEFAAMDSSETLDASWEAACSDGARRVRAAGSLPSAELSSNSCSPGCGPEVPPTPPGSHSAFTSSFSFIRLSLGSAGERGEAEGCPPSREAESHCQSPQEMGAKAASLDGPHEDPRCLSRPFSLLATRVSADLAQAARNSSRPERDMHSLPDMDPGSSSSLDPSLAGCGGDGSSGSGDAHSWDTLLRKWEPVLRDCLLRNRRQMEVISLRLKLQKLQEDAVENDDYDKAETLQQRLEDLEQEKISLHFQLPSRQPALSSFLGHLAAQVQAALRRGATQQASGDDTHTPLRMEPRLLEPTAQDSLHVSITRRDWLLQEKQQLQKEIEALQARMFVLEAKDQQLRREIEEQEQQLQWQGCDLTPLVGQLSLGQLQEVSKALQDTLASAGQIPFHAEPPETIRSLQERIKSLNLSLKEITTKVCMSEKFCSTLRKKVNDIETQLPALLEAKMHAISGNHFWTAKDLTEEIRSLTSEREGLEGLLSKLLVLSSRNVKKLGSVKEDYNRLRREVEHQETAYETSVKENTMKYMETLKNKLCSCKCPLLGKVWEADLEACRLLIQSLQLQEARGSLSVEDERQMDDLEGAAPPIPPRLHSEDKRKTPLKVLEEWKTHLIPSLHCAGGEQKEESYILSAELGEKCEDIGKKLLYLEDQLHTAIHSHDEDLIQSLRRELQMVKETLQAMILQLQPAKEAGEREAAASCMTAGVHEAQA

Variants of B1 are the subject of the first assay. The conditions noted are these: with drd2_human DRD2, P14416.
Sequence of drd2_human DRD2, P14416 (P14416 whole entry): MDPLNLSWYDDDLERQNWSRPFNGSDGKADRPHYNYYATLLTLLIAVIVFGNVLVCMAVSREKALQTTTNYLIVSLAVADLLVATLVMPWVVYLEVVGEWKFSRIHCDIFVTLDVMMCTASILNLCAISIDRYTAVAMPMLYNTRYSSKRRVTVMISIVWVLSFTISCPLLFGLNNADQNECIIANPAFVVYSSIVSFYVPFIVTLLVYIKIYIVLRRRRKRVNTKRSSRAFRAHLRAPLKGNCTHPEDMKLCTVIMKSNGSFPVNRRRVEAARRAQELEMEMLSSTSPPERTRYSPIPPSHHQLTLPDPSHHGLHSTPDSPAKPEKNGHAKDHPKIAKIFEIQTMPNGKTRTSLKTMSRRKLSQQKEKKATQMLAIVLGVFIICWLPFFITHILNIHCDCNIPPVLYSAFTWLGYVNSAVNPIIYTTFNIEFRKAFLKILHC
In the case of L100P, the “effect of a mutation on the interaction” value was “increasing interaction”.

In another assay the parent is B1. To be noted: with drd2_mouse Drd2, P61168.
Sequence of drd2_mouse Drd2, P61168 (P61168 whole entry): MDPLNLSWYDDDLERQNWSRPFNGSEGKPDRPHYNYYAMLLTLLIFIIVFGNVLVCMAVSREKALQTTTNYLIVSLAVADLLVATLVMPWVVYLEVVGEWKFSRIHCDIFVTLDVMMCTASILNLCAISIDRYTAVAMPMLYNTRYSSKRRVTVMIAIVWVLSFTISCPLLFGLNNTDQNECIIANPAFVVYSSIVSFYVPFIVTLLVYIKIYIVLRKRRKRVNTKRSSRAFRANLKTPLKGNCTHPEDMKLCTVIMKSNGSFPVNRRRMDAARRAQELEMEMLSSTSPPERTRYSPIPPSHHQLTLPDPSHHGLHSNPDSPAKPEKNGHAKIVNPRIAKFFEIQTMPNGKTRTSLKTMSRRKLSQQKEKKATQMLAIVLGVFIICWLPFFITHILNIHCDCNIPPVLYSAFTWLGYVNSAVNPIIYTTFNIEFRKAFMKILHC
Consider L100P, for which the “effect of a mutation on the interaction” value is listed as “increasing interaction”.

Variants of B2 are the subject of the next assay. To be noted: with drd2_human DRD2, P14416.
Turning to R264Q, the “effect of a mutation on the interaction” value was “increasing interaction”.

Variants of B2 are the subject of another assay. The conditions noted are these: with drd2_human DRD2, P14416. This is another data set of the same source.
With A83V, the “effect of a mutation on the interaction” value is “decreasing interaction”.
